# Where no end group is shown, it is not given here.
# B1: Phage-2543 (peptide)
# peptide: SEHWCIPQWMCQSV
# modifications: cysteine pairing not given here; also: fused to phage pIII, linker and fusion site not given here
# B2: Phage-2563 (peptide)
# peptide: NWKWCIPEWMCAAE
# modifications: cysteine pairing not given here; also: fused to phage pIII, linker and fusion site not given here
# B3: Phage-2547 (peptide)
# peptide: EGKWCIPDWMCAAH
# modifications: cysteine pairing not given here; also: fused to phage pIII, linker and fusion site not given here
# Key:
# PSMA Fab [1] = target: T1, PSMA Fab (biotinylated (site not stated)); experiment: phage ELISA; PSMA Fab-coated wells pre-incubated with PSMA antigen as competitor, anti-M13-HRP detection
# T1 construct: Biotinylated PSMA Fab captured on neutravidin plates in the phage ELISA; also called Anti-PSMA Fab; 006 PSMA Fab
# PSMA Fab [2] = target: T1, PSMA Fab; experiment: phage ELISA; biotinylated PSMA Fab on neutravidin plate, clonal phage supernatant, anti-M13-HRP detection;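 also: wells were preincubated with blocking buffer containing PSMA antigen or with blocking buffer only, then phage supernatant was added without washing for a brief incubation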
# Experimental: (§1) Clonal phage were harvested as crude supernatants and screened via standard ELISAs. […] Prior to the addition of clonal phage. wells were incubated with blocking buffer and PSMA antigen or blocking buffer alone. Without washing or aspirating, clonal phage supernatants were then added to the wells and incubated for a short time. Wells were then washed followed by detection of bound phage using a horse radish conjugated anti-M13 antibody.
# [3] = target: T2, PSMA Fab (SEQ ID NOs: 19, 20); experiment: phage ELISA; biotinylated PSMA Fab on neutravidin plate, anti-M13 HRP; no PSMA antigen
# T2 construct: Biotinylated and captured on neutravidin coated plates in the phage ELISA; also called Anti-PSMA Fab; 006 PSMA Fab
# Experimental: as §1
# [4] = target: T2, PSMA Fab (SEQ ID NOs: 19, 20); experiment: phage ELISA; biotinylated PSMA Fab on neutravidin plate, anti-M13 HRP; competitor PSMA antigen pre-incubated
# Experimental: as §1
# PSMA Fab (006 PSMA Fab) [5] = target: T3, PSMA Fab (006 PSMA Fab); experiment: clonal phage ELISA; biotinylated PSMA Fab on neutravidin plate, wells pre-incubated with PSMA antigen as competitor; anti-M13 HRP detection;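 also: crude clonal phage supernatants added to antigen-treated wells without a wash, incubated briefly, then bound phage read out via horse radish–conjugated anti-M13 antibody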
# T3 construct: also called Anti-PSMA Fab; anti-PSMA Fab
# Experimental: as §1
# PSMA Fab (006 PSMA Fab) [6] = target: T3, PSMA Fab (006 PSMA Fab); experiment: clonal phage ELISA; biotinylated PSMA Fab on neutravidin plate, blocking buffer alone; anti-M13 HRP detection;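 also: crude clonal phage supernatants added without washing to wells pretreated with blocking buffer with or without PSMA antigen, short incubation, then washed before detecting bound phage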
# Experimental: as §1
Binder,"Phage binding ELISA signal, Anti-PSMA Fab with PSMA antigen (PSMA Fab [1])","Phage binding ELISA signal, Anti-PSMA Fab (PSMA Fab [2])","Phage binding ELISA signal, Anti-PSMA Fab in presence of PSMA antigen (PSMA Fab (006 PSMA Fab) [5])","Phage binding ELISA signal, Anti-PSMA Fab (PSMA Fab (006 PSMA Fab) [6])",further results
LYNWCTPAWMCYGY [Phage-2545],0.284,1.15,–,–,–
WDKWCTPPWMCQVH [Phage-2559],–,–,–,–,phage binding ELISA signal [3]: 1.12; phage binding ELISA signal [4]: 0.0758
FHEWCIPSWMCFKE [Phage-2550],0.0984,1.14,–,–,–
GEKACIPAWMCSEN [Phage-2553],0.0736,1.13,–,–,–
IAKLCTPAWMCERH [Phage-2562],–,–,–,–,phage binding ELISA signal [3]: 1.11; phage binding ELISA signal [4]: 0.0803
VDNWCTPMWMCAWI (Row prints V D N W - T - M - - - - W I) [Phage-2517],–,–,0.109,1.18,–
TQKLCIPEWMCEAM [Phage-2555],0.0698,1.12,–,–,–
DNKWCIPEWMCFAS (Row prints D N K W - I - E - - - F A S) [Phage-2521],–,–,0.0796,1.18,–
LQTWCIPPWMCEGG [Phage-2556],0.0675,1.12,–,–,–
B1,0.114,1.15,–,–,–
WENWCTPTWMCWPN [Phage-2558],–,–,–,–,phage binding ELISA signal [3]: 1.12; phage binding ELISA signal [4]: 0.0834
PIPLCIPLWMCEER (Row prints P I P - - I - L - - - E E R) [Phage-2520],–,–,0.0838,1.18,–
AVKWCTPAWMCSGF (Row prints A V K W - T - A - - - S - -) [Phage-2524],–,–,0.0682,1.18,–
FENWCTPKWMCIGV [Phage-2548],0.102,1.14,–,–,–
PLKWCIPQWMCTEA [Phage-2544],0.0825,1.15,–,–,–
VLKWCTPAWMCTGF [Phage-2557],0.0805,1.12,–,–,–
IDPRCIPEWMCIGY (Row prints - D P R - I - E - - - I - Y) [Phage-2518],–,–,0.0633,1.18,–
VEKWCIPEWMCWTV [Phage-2565],–,–,–,–,phage binding ELISA signal [3]: 1.11; phage binding ELISA signal [4]: 0.0709

Binder,"Phage binding ELISA signal, Anti-PSMA Fab with PSMA antigen (PSMA Fab [1])","Phage binding ELISA signal, Anti-PSMA Fab (PSMA Fab [2])","Phage binding ELISA signal, Anti-PSMA Fab in presence of PSMA antigen (PSMA Fab (006 PSMA Fab) [5])","Phage binding ELISA signal, Anti-PSMA Fab (PSMA Fab (006 PSMA Fab) [6])",further results
IVRWCTPEWMCVGF (Row prints - V R W - T - E - - - V - -) [Phage-2523],–,–,0.0674,1.18,–
HERSCIPAWMCWRQ (Row prints H E R S - I - A - - - W R Q) [Phage-2522],–,–,0.0706,1.18,–
AEYWCIPRWMCSQH [Phage-2552],0.0882,1.14,–,–,–
VPKWCTPAWMCTGL (Row prints V P K W - T - A - - - T - L) [Phage-2516],–,–,0.0721,1.18,–
VDPWCKPAWMCLGM [Phage-2566],–,–,–,–,phage binding ELISA signal [3]: 1.11; phage binding ELISA signal [4]: 0.0597
GVMWCIPQWMCVTA [Phage-2560],–,–,–,–,phage binding ELISA signal [3]: 1.12; phage binding ELISA signal [4]: 0.104
VPIWCTPEWMCSGF (Row prints V P I W - T - E - - - S - -) [Phage-2519],–,–,0.0879,1.18,–
VITWCTPPWMCSGW (Row prints V I T W - T - P - - - S - W) [Phage-2525],–,–,0.0911,1.17,–
VQKWCIPPWMCTHI [Phage-2549],0.0958,1.14,–,–,–
WEKWCTPSWMCSAG (Row prints W E K W - T - S - - - S A G) [Phage-2526],–,–,0.0743,1.17,–
EPKWCTPPWMCQSV [Phage-2551],0.0734,1.14,–,–,–
YAPWCIPLWMCLDR [Phage-2561],–,–,–,–,phage binding ELISA signal [3]: 1.11; phage binding ELISA signal [4]: 0.161
B2,–,–,–,–,phage binding ELISA signal [3]: 1.11; phage binding ELISA signal [4]: 0.0635
MFKWCTPQWMCETM [Phage-2554],0.124,1.13,–,–,–
B3,0.0598,1.14,–,–,–
ESHWCIPAWMCEQF [Phage-2546],0.0589,1.14,–,–,–
SEIWCIPAWMCQST [Phage-2564],–,–,–,–,phage binding ELISA signal [3]: 1.11; phage binding ELISA signal [4]: 0.0851

# Reference: patent US20260242478A1 (published 2026)
